B1: Protein GLUTAMINE DUMPER 1 (Arabidopsis thaliana (Mouse-ear cress)), O81775 (parent)
chain: MRPLSVQSKFEDVATSTSVNHHGVTPQSPWHSPVPYLFGGLAAMLGLIAFALLILACSYWRLSSSGEEDGQNVDEEKESRSGDKAANGAYEEKFLVIMAGEDLPRYLATPAMKKCTCGGHEGKMVISQEESVAKEEEKMREGEEEKVKDTGETTTTSH
partner: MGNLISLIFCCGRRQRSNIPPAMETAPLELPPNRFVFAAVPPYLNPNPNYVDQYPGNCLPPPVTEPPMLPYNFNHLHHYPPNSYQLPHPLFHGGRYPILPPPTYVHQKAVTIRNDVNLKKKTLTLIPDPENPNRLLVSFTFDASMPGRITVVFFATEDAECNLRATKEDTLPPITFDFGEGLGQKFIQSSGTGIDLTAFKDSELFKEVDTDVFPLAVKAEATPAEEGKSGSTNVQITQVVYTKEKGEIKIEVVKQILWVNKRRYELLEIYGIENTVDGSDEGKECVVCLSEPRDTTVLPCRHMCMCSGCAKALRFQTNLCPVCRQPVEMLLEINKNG
B2: Probable E3 ubiquitin-protein ligase LOG2 (Arabidopsis thaliana (Mouse-ear cress)), Q9S752 (parent)
chain: MGNISSSGGEGRRRRRRNHTAAPPPPPPPPSSSLPPPPLPTEIQANPIVFAAVTPYPNPNPNPVYQYPASYYHHPPPGAMPLPPYDHHLQHHPPHPYHNHSWAPVAMARYPYAGHMMAQPTPYVEHQKAVTIRNDVNLKKESLRLEPDPDNPGRFLVSFTFDATVSGRISVIFFAKESEDCKLTATKEDILPPITLDFEKGLGQKFKQSSGSGIDFSVFEDVELFKAAADTEIYPLAVKAEAAPSGGENEEEERSGSKNAQITQAVYEKDKGEIKIRVVKQILWVNGTRYELQEIYGIGNTVEGDDDSADDANDPGKECVICLSEPRDTTVLPCRHMCMCSGCAKVLRFQTNRCPICRQPVERLLEIKVHGNNGSGNNTGQGETVEQE
partner: B1 chain
B3: Protein GLUTAMINE DUMPER 1 (Arabidopsis thaliana (Mouse-ear cress)), O81775 (parent)
chain: B1 chain
partner: B2 chain

Variants of: B1
Details: with lul1_arath LUL1, Q9LYW5

Row | Variant | effect of a mutation on the interaction
1 | G100R | disrupting interaction

Variants of: B2
Details: with gdu1_arath GDU1, O81775

Row | Variant | effect of a mutation on the interaction
2 | G2A;C354A;C357A | decreasing interaction

Variants of: B3
Details: with lofg2_arath LOG2, Q9S752

Row | Variant | effect of a mutation on the interaction
3 | G100R | disrupting interaction

— IntAct's records for PubMed 22291198
